Patent publication US20260263521A1 (AIMED BIO, published 2026)

Tests used:
[1] = molecular target: T1, human CD200R1 expressed on cells (Jurkat-CD200R1, U937-CD200R1, HH cells) (human, UniProt Q8TD46 25-348); experiment: flow cytometry, U937-CD200R cells
T1 construct: whole, on cells; also called HH (CRL-2105); cell surface-expressed CD200R1
T1 sequence (looked up): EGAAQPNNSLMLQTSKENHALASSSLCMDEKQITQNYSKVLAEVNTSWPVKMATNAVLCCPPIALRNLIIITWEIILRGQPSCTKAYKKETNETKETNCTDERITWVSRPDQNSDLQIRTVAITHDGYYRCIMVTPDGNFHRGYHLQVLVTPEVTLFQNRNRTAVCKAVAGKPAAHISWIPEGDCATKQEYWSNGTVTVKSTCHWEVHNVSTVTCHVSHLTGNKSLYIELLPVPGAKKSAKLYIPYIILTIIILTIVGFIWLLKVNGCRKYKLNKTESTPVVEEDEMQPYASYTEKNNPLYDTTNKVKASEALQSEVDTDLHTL
Procedure: Two additional wells were treated with 10 μl of mouse IgG1K (BD, #555751) and 5 μl of commercial CD200R1 antibody (Biolegend, #329308) to determine CD200R1 expression on the cell line surface for cell quality control.
The antibodies were serially diluted 10-fold from a maximum concentration of 100 nM to 10 nM, 1 nM, […], and were added to the pre-seeded cells. After reaction for 1 hour at 4° C., the cells were treated with Alexa-647 goat anti-human IgG (H+L) cross-adsorbed secondary antibody (Invitrogen, #A21445) and incubated for an additional 30 minutes at 4° C. After washing twice with FACS buffer, flow cytometry was performed using a Novocyte Flow cytometer (Agilent). Using GraphPad Prism software, the EC₅₀ was determined using a nonlinear graph model of log (agonist) vs. response-variable slope, as shown in Table 32.

[2] = molecular target: T2, recombinant human CD200R1 Fc chimera protein, CF (R&D systems, 3414-CD) (human, UniProt Q8TD46 27-266); experiment: ELISA, plate-bound human CD200R1-Fc (2 ug/mL), IgG 0.0192-300 nM, anti-human IgG F(ab')2-HRP, OD 450 nm; panel 'human CD200R1'
T2 construct: Bought; also called CD200R1-Fc protein; human CD200R1 Fc protein; Fc part of the bought chimera not given
T2 sequence (looked up): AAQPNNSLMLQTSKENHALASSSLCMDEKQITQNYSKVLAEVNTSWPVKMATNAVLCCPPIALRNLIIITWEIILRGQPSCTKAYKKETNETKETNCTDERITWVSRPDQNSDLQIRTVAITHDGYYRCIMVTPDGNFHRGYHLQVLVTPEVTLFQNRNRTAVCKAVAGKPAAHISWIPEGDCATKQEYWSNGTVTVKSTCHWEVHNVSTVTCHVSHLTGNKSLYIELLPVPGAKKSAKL
Procedure: 96-well plates were coated with human CD200R1 (R&D systems, 3414-CD) and mouse CD200R1 protein (R&D systems, 2554-CD) at a concentration of 2 μg/mL at 4° C. for 16 hours and then were blocked with 3% skim milk.
Color was developed with a TMB substrate solution (Thermo Scientific, 34029, 1-Step™ TMB-ELISA Ultra Substrate Solution). The color reaction was stopped with stop solution (Invitrogen, SS04, ELISA Stop Solution). The absorbance was measured at an optical density of 450 nm.

B1: P001009 (IgG) (antibody, V domains shown)
VH: EVQLLESGGGLVQPGGSLRLSCAASGFTFSSYDMSWVRQAPGKGLEWVSWISHGGGSIYYADSVKGRFTISRDNSKNTLYLQMNSLRAEDTAVYYCARDAPAYSAPLFDYWGQGTLVTVSS
VL: QSVLTQPPSASGTPGQRVTISCSGSSSNIGNNAVNWYQQLPGTAPKLLIYYDSNRPSGVPDRFSGSKSGTSASLAISGLRSEDEADYYCAAWDDSLSGYVFGGGTKLTVL
notes: also called P001009 WT; P001009 wt
EC50 [1]: 0.41 nM
EC50 (read off the curve) [2]: ~0.5 nM
